Experimental data from the supplement of paper PMC6379048.

Columns and labels:
Experiment in all cases: EC50 of free RNA motif oligo competing protein binding to immobilised probe
DIS3L2 = target: T1, DIS3L2 (UniProt Q8IYB7)
T1 sequence: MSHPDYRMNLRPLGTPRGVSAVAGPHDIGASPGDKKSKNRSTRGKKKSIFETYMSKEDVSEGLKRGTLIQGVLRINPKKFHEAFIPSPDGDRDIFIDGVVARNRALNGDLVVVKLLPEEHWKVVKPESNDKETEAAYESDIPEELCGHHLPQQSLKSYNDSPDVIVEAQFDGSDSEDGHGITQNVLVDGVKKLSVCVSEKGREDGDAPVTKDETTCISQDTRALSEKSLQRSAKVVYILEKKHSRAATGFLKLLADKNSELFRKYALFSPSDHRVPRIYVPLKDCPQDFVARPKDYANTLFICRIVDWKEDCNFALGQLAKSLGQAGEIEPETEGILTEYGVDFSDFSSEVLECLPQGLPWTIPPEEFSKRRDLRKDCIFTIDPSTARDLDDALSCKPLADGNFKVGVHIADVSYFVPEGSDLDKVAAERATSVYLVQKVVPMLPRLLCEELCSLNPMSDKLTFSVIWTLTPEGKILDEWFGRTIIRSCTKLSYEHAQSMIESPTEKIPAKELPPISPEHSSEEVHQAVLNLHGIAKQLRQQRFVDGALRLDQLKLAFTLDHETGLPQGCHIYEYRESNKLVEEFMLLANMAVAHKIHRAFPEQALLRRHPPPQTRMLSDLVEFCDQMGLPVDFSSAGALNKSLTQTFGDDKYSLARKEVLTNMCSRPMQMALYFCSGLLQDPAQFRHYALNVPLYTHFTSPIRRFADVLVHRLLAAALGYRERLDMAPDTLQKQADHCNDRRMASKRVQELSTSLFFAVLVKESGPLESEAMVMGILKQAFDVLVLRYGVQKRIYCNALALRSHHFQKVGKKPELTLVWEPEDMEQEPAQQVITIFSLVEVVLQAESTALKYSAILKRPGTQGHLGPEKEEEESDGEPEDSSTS
Protocol: (§1)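 Competition-binding assay: HEK293-FT cell lysate (2.5 mg protein) pre-incubated 1 h at 4°C with free motif-containing RNA oligos (0 to 30 µM, 12 doses), then pulled down with the same 5'-amino-C6 RNA oligos immobilised on NHS-Sepharose beads (30 min, 4°C). Bound proteins were quantified by label-free LC-MS/MS and normalised to the water control. EC50 came from a four-parameter log-logistic fit; Kd = EC50 x depletion factor. Random/reversed control probes are dropped.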

SKIV2L2 = target: T2, SKIV2L2 (UniProt P42285)
T2 sequence: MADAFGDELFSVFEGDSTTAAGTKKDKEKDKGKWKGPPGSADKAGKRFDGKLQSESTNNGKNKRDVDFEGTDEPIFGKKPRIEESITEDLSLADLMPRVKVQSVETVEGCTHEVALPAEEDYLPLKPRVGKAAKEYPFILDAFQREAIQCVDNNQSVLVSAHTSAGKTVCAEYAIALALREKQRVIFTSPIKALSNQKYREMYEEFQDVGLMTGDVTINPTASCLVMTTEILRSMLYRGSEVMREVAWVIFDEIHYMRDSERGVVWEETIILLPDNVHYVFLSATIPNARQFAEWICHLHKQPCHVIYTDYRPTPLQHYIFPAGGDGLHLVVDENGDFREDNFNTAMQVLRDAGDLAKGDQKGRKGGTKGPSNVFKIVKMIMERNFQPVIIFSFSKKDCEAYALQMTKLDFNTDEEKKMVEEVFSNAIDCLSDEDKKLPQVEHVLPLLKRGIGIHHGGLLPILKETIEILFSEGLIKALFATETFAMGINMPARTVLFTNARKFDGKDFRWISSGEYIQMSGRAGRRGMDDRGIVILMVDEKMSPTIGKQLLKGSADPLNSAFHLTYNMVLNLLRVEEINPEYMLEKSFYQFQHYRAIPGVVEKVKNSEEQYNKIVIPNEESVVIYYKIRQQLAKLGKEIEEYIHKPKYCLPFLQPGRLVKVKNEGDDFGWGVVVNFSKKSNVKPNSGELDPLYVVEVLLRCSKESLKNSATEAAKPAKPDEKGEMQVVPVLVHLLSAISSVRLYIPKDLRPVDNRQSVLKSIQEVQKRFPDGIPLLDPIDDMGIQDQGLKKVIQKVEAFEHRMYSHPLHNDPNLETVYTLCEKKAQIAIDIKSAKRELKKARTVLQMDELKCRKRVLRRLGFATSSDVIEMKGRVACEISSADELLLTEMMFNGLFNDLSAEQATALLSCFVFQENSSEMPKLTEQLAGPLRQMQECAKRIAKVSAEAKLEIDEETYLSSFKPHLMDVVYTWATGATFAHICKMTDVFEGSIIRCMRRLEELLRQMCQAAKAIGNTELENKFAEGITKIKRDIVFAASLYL
Protocol: as §1

NKRF = target: T3, NKRF (UniProt O15226)
T3 sequence: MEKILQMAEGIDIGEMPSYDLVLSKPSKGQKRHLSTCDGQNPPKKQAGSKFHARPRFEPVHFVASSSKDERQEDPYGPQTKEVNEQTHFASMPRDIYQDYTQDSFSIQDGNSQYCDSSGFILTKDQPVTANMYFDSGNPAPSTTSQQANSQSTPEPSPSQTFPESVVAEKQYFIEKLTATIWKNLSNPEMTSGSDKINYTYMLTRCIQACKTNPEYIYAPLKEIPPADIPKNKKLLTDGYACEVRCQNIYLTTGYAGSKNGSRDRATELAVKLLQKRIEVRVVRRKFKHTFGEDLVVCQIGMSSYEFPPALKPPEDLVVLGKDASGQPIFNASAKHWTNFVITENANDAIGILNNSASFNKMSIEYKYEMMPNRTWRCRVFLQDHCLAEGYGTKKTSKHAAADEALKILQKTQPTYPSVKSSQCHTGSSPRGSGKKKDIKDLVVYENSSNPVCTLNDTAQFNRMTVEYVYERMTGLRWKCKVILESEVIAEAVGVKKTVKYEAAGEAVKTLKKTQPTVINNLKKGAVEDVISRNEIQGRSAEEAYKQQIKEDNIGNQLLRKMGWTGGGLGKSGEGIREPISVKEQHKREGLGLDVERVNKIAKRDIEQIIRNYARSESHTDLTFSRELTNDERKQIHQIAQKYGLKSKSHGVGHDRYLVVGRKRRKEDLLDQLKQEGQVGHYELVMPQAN
Protocol: as §1

DHX9 = DHX9 (UniProt Q08211)
Protocol: as §1

DHX9, sequence (Q08211 whole entry): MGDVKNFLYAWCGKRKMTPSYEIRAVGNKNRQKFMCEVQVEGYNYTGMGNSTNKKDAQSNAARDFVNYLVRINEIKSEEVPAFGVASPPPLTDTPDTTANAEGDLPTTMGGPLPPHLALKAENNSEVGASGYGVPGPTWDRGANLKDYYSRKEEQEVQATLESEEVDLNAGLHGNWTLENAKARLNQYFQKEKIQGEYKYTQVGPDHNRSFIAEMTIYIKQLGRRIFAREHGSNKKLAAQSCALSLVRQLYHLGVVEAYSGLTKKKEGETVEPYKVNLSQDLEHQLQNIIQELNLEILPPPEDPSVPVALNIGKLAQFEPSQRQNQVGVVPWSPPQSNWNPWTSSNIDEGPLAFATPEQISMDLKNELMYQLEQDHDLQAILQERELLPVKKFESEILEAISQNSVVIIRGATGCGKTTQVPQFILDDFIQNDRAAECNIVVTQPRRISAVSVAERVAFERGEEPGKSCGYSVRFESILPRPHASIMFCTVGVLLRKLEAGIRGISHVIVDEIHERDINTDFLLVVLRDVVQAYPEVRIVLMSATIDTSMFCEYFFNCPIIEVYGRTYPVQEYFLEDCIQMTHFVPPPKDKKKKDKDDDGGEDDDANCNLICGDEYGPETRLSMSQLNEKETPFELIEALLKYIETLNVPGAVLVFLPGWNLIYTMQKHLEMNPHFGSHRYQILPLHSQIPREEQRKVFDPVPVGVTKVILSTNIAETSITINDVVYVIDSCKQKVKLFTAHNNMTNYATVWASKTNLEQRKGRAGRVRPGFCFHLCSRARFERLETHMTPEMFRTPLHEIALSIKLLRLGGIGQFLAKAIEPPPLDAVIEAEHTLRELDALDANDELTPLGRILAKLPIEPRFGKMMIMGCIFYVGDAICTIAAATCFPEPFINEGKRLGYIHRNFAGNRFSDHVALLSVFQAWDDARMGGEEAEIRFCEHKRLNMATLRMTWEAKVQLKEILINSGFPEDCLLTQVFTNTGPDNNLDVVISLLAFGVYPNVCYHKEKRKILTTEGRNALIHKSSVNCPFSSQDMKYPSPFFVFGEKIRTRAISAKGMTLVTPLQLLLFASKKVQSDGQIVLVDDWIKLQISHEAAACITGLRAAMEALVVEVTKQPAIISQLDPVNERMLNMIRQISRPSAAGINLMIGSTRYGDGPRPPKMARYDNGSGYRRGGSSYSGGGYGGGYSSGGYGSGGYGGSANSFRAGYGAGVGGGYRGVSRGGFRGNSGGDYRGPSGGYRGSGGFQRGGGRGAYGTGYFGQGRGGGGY

Sequence	EC50 (DIS3L2) [nM]	EC50 (SKIV2L2) [nM]	EC50 (NKRF) [nM]	EC50 (DHX9) [nM]
CUGUCCU	1180	3470	554	546
AAUAAA	1340	2880	1180	4050
UAUUUAU	376	619	380	1870
